We go through one protein from publication PMC8517440, “Structural and Catalytic Characterization of TsBGL, a β-Glucosidase From Thermofilum sp. ex4484_79” (Frontiers in Microbiology, 2021).

Substrate in data set [1]: O=[N+]([O-])c1ccc(O[C@@H]2O[C@H](CO)[C@@H](O)[C@H](O)[C@H]2O)cc1
Kind of data set: purified protein. The conditions noted are these: pH 5.0, 90°C, 0.1-6.0 mM substrate, kcat printed 135.1 in Table 2. In kind it is biochemical, Thermofilum sp. ex4484_79.

Substrate in data set [2]: O=[N+]([O-])c1ccc(O[C@@H]2O[C@H](CO)[C@H](O)[C@H](O)[C@H]2O)cc1
Kind of data set: purified protein. The format is biochemical, Thermofilum sp. ex4484_79. The conditions noted are these: pH 5.0, 90°C, table header prints mm^-1, text prints 1.05 mm.

B1: TsBGL (Thermofilum sp. ex4484_79) (protein)
chain: MPFPEKFFWGASSSGFQFEMGDPEGKSIDPNTDWFKWVHDETNIRRGVVSGDLPEHGINYWDLFRSDHELAASIGMNAYRIGIEWSRIFPKPTLDVRVGIELDPEGYITRVEVDDKAIEELDLLANKEAVSRYREIILDLRDRGLKVFVCLNHFTLPLWIHDPIACRDTKLKRGPKGWVDKTTILEFAKYSAYMAWSLGNIVDYWVTFNEPMVVTEAGYFQPEVGFPPGLRNISAFKTACLNIANAHVVAYDLIKKYDKVRADDDSPSAAYVGIVHNIVPIKPYSERKLDLKAADLMNYIHNKWILEFIVRGKIDRSLVGREKYLIDKFKDKLDWLGVNYYTRIVLKGKWVPPLISPVPVIPDIVKGYGFNCTPGGRSLDGMPVSDFGWEVYPQGLSDALDIASEYGKPLIVTENGIADSEDNIRPYFLVSHLKVLEEYVEKKKNVYGYLHWALTDNYEWAQGFKMRFGLTDVDLETKERKPRESSEVFKIIASEKTVPEELVEKYPKPIF
notes: synthetic gene in E. coli BL21(DE3) pLysS; N-terminal His6-SUMO tag cut with Ulp1; check)
As for B1, in “purified protein [1]”, the Km – broadly, the concentration of substrate that gives half-maximal velocity – is 617 µM; the kcat (usually the number of substrate molecules converted per active site and unit of time at saturation) is 136.05 s⁻¹. Besides, in the data set “purified protein [2]”, the Km was found to be 1054 µM, the kcat turned out to be 124 s⁻¹ and the kcat/Km (usually the second-order rate constant that governs catalysis at low substrate concentration) amounted to 118000 M⁻¹ s⁻¹.
